Source: patent US20260274955A1 (JANUX THERAPEUTICS, published 2026)

These binders were tested against T1, Anti-CD28 Fab (SEQ ID NOs: 202, 203) (assay: phage ELISA, Fab on plate;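 also: crude clonal phage supernatants added to wells pretreated with blocking buffer with or without CD28 antigen, then bound phage read out via HRP-linked anti-M13 antibody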).
T1 construct: biotinylated and captured on neutravidin coated plates in the phage ELISA
T1 sequence (VH, as listed by the source, chain 1 of 2): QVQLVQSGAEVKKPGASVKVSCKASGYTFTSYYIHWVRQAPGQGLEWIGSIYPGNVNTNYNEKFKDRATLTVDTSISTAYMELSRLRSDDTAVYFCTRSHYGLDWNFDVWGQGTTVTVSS
T1 sequence (VL, as listed by the source, chain 2 of 2): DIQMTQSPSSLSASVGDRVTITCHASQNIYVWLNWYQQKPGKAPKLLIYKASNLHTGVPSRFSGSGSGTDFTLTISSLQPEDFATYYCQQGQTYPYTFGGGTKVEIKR
Method: After panning, phage infected bacteria were plated out and colonies picked into 96 well blocks. Clonal phage was then amplified and separated from bacterial cells via centrifugation.
Clonal phage were harvested as crude supernatants and screened via standard ELISAs. […] Prior to the addition of clonal phage, wells were incubated with blocking buffer and CD28 antigen or blocking buffer alone. Without washing or aspirating, clonal phage supernatants were then added to the wells and incubated for a short time. Wells were then washed followed by detection of bound phage using a horse radish conjugated anti-M13 antibody. Clonal phage of interest were then sent for sequence analysis.
For YCDGHLQMYMMKCL [Phage-724], the “Anti-CD28 Fab (SEQ ID NOs: 202, 203) signal” value (“Anti-CD28 Fab” for short) was 1.14.
YCDGHIWPWIEKCL [Phage-731] was tested, and the “Anti-CD28 Fab” value was 1.11.
YCDGHVVEYMSKCL [Phage-729] was tested, and the “Anti-CD28 Fab” value was 1.12.
With YCVGHSEQYMAKCL [Phage-726] the “Anti-CD28 Fab” value was 1.13.
With YCQGHLPQYIEKCL [Phage-721] the “Anti-CD28 Fab” value was 1.14.
In the case of YCEGHAEQYMKKCL [Phage-728], the “Anti-CD28 Fab” value is reported as 1.12.
In the case of YCAGHLPQYMHKCL [Phage-730], the “Anti-CD28 Fab” value is reported as 1.11.
With YCEGHAAAYMGKCL [Phage-722] the “Anti-CD28 Fab” value was 1.14.
For YCDGHEAEYMWKCL [Phage-727], the “Anti-CD28 Fab” value was 1.13.
With YCDGHEQQYMEKCL [Phage-723] the “Anti-CD28 Fab” value was 1.14.
For YCEGHVAEYRAKCL [Phage-720], the “Anti-CD28 Fab” value was 1.15.
For YCEGHLYEYMWKCL [Phage-725], the “Anti-CD28 Fab” value was 1.13.
In the case of YCEGHSSLYLEKCL [Phage-732], the “Anti-CD28 Fab” value is reported as 1.11.

These binders were tested against T2, anti-CD28 Fab (SEQ ID NOs: 202, 203) (assay: phage ELISA on captured Fab;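 also: ELISA with clonal phage supernatants added to wells preincubated with CD28 antigen or with blocking buffer only, bound phage detected by HRP-conjugated anti-M13 antibody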).
T2 construct: biotinylated and captured on neutravidin coated plates in the phage ELISA
T2 sequence (VH, as listed by the source, chain 1 of 2): as the sequence (VH, as listed by the source, chain 1 of 2) above
T2 sequence (VL, as listed by the source, chain 2 of 2): as the sequence (VL, as listed by the source, chain 2 of 2) above
Method: (§1) Clonal phage were harvested as crude supernatants and screened via standard ELISAs. […] Prior to the addition of clonal phage, wells were incubated with blocking buffer and CD28 antigen or blocking buffer alone. Without washing or aspirating, clonal phage supernatants were then added to the wells and incubated for a short time. Wells were then washed followed by detection of bound phage using a horse radish conjugated anti-M13 antibody.
For YCEGHMPEYLQKCL (on phage, pIII fusion) [Phage-514], the “Anti-CD28 Fab” value was 1.6.
YCDGHLPEYITKCL (on phage, pIII fusion) [Phage-573] was tested, and the “Anti-CD28 Fab” value was 1.49.
For YCDGHTSEYMTKCL (on phage, pIII fusion) [Phage-546], the “Anti-CD28 Fab” value was 1.54.
For YCEGHVLEYRGKCD (on phage, pIII fusion) [Phage-576], the “Anti-CD28 Fab” value was 1.48.
In the case of YCDGHFLTYMTKCL (on phage, pIII fusion) [Phage-538], the “Anti-CD28 Fab” value is reported as 1.56.
For YCSGHLPEYMWKCL (on phage, pIII fusion) [Phage-508], the “Anti-CD28 Fab” value was 1.61.
YCDGHLPVYMMKCL (on phage, pIII fusion) [Phage-544] was tested, and the “Anti-CD28 Fab” value was 1.55.
YCDGHSVEYKLKCM (on phage, pIII fusion) [Phage-509] was tested, and the “Anti-CD28 Fab” value was 1.61.
For YCDGHVAEYRHKCL (on phage, pIII fusion) [Phage-577], the “Anti-CD28 Fab” value was 1.47.
For YCEGHSAAYMQKCL (on phage, pIII fusion) [Phage-513], the “Anti-CD28 Fab” value was 1.6.
YCEGHLDQYMTKCL (on phage, pIII fusion) [Phage-578] was tested, and the “Anti-CD28 Fab” value was 1.47.
For YCDGHRLEYLEKCL (on phage, pIII fusion) [Phage-516], the “Anti-CD28 Fab” value was 1.6.
In the case of YCDGHSEVYMSKCL (on phage, pIII fusion) [Phage-540], the “Anti-CD28 Fab” value is reported as 1.55.
With YCAGHDQQYMEKCL (on phage, pIII fusion) [Phage-543] the “Anti-CD28 Fab” value was 1.55.
YCDGHLPMYMKKCL (on phage, pIII fusion) [Phage-533] was tested, and the “Anti-CD28 Fab” value was 1.57.
YCDGHLLEYMSKCL (on phage, pIII fusion) [Phage-582] was tested, and the “Anti-CD28 Fab” value was 1.46.
In the case of YCAGHNAQYMSKCL (on phage, pIII fusion) [Phage-545], the “Anti-CD28 Fab” value is reported as 1.55.
For YCEGHTPVYMPKCL (on phage, pIII fusion) [Phage-585], the “Anti-CD28 Fab” value was 1.46.
For YCAGHTQEYIEKCL (on phage, pIII fusion) [Phage-579], the “Anti-CD28 Fab” value was 1.47.
YCDGHAQEYMVKCL (on phage, pIII fusion) [Phage-510] was tested, and the “Anti-CD28 Fab” value was 1.61.
YCEGHLDMYVWKCL (on phage, pIII fusion) [Phage-535] was tested, and the “Anti-CD28 Fab” value was 1.56.
With YCEGHRPEYMQKCV (on phage, pIII fusion) [Phage-574] the “Anti-CD28 Fab” value was 1.48.
With YCEGHSLEHIAKCL (on phage, pIII fusion) [Phage-584] the “Anti-CD28 Fab” value was 1.46.
With YCDGHAQEFIWKCL (on phage, pIII fusion) [Phage-518] the “Anti-CD28 Fab” value was 1.6.
YCAGHLDQYIEKCL (on phage, pIII fusion) [Phage-517] was tested, and the “Anti-CD28 Fab” value was 1.6.
For YCDGHLEIYMSKCL (on phage, pIII fusion) [Phage-581], the “Anti-CD28 Fab” value was 1.46.
With YCAGHTVENMAKCL (on phage, pIII fusion) [Phage-575] the “Anti-CD28 Fab” value was 1.48.
With YCDGHSLEYMVKCL (on phage, pIII fusion) [Phage-583] the “Anti-CD28 Fab” value was 1.46.
With YCDGHELQYMAKCL (on phage, pIII fusion) [Phage-515] the “Anti-CD28 Fab” value was 1.6.
YCDGHSEAYMWKCL (on phage, pIII fusion) [Phage-519] was tested, and the “Anti-CD28 Fab” value was 1.59.
In the case of YCQGHLPQYVEKCL (on phage, pIII fusion) [Phage-534], the “Anti-CD28 Fab” value is reported as 1.57.
With YCDGHSPLYMVKCL (on phage, pIII fusion) [Phage-537] the “Anti-CD28 Fab” value was 1.56.
For YCEGHTLEYMWKCL (on phage, pIII fusion) [Phage-541], the “Anti-CD28 Fab” value was 1.55.
In the case of YCDGHLAIYIGKCL (on phage, pIII fusion) [Phage-580], the “Anti-CD28 Fab” value is reported as 1.47.
In the case of YCAGHSEEYMDKCL (on phage, pIII fusion) [Phage-539], the “Anti-CD28 Fab” value is reported as 1.55.
With YCDGHSQEYMAHCL (on phage, pIII fusion) [Phage-536] the “Anti-CD28 Fab” value was 1.56.
With YCDGHSVKYMAKCL (on phage, pIII fusion) [Phage-507] the “Anti-CD28 Fab” value was 1.61.
YCAGHSPEYMQKCL (on phage, pIII fusion) [Phage-511] was tested, and the “Anti-CD28 Fab” value was 1.6.
For YCDGHSQAHMQKCL (on phage, pIII fusion) [Phage-542], the “Anti-CD28 Fab” value was 1.55.
YCEGHLPLYMDKCL (on phage, pIII fusion) [Phage-512] was tested, and the “Anti-CD28 Fab” value was 1.6.

The binders below were run against Anti-CD28 Fab (SEQ ID NOs: 202, 203) (assay: phage binding ELISA on captured Fab;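 also: clonal phage supernatants added briefly to wells pre-incubated with CD28 antigen or with blocking buffer only, then washed, bound phage read by ELISA using HRP-coupled anti-M13 antibody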).
Target sequence in this assay (VH, as listed by the source, chain 1 of 2): as the sequence (VH, as listed by the source, chain 1 of 2) above
Target sequence in this assay (VL, as listed by the source, chain 2 of 2): as the sequence (VL, as listed by the source, chain 2 of 2) above
Method: as §1
With YCEGHSSAYMAKCL [Phage-804] the “Anti-CD28 Fab” value was 0.9.
YCAGHSSEYLQKCL [Phage-760] was tested, and the “Anti-CD28 Fab” value was 1.03.
With YCDGHLAEYIQKCL [Phage-759] the “Anti-CD28 Fab” value was 1.04.

The binders below were run against T3, anti-CD28 Fab (SEQ ID NOs: 202, 203) (assay: phage binding ELISA; biotinylated Fab on neutravidin plate;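 also: clonal phage supernatants added to Fab wells pretreated with CD28 antigen or with blocking buffer only, bound phage read out via HRP-linked anti-M13 antibody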).
T3 construct: biotinylated and captured on neutravidin coated plates in the phage ELISA
T3 sequence (VH, as listed by the source, chain 1 of 2): as the sequence (VH, as listed by the source, chain 1 of 2) above
T3 sequence (VL, as listed by the source, chain 2 of 2): as the sequence (VL, as listed by the source, chain 2 of 2) above
Method: as §1
With YCEGHSEEYMSKCL [Phage-304] the “Anti-CD28 Fab” value was 1.91.
For YCEGHLAVYMQKCL [Phage-301], the “Anti-CD28 Fab” value was 1.91.
In the case of YCEGHSSEYMEKCL [Phage-302], the “Anti-CD28 Fab” value is reported as 1.91.
In the case of YCDGHLDIYLAKCL [Phage-303], the “Anti-CD28 Fab” value is reported as 1.91.
